Test results reported in PMC3985631, “The crystal structure of TDP-43 RRM1-DNA complex reveals the specific recognition for UG- and TG-rich nucleic acids”.

What was measured:
TDP-43 RRM1 (hRRM1) WT [1] = target: T1, TDP-43 RRM1 (hRRM1) WT (human, UniProt Q13148 101-191); test: filter binding; Filter binding: 50 mM phosphate, 50 mM imidazole, 10 mM beta-mercaptoethanol, pH 7.5, room temperature, 30 min, 10 pmol 32P-labelled nucleic acid; conditions: protein: recombinant; tags: N-terminal His (pQE30); label: 5'-32P
TDP-43 hN12 WT [2] = target: T2, TDP-43 hN12 WT (human, UniProt Q13148 1-259); test: filter binding; 2 uM protein; Filter binding: 50 mM phosphate, 50 mM imidazole, 10 mM beta-mercaptoethanol, pH 7.5, room temperature, 30 min, 10 pmol 32P-labelled nucleic acid; conditions: protein: recombinant; chain copies: 2
TDP-43 RRM1 (hRRM1) WT [3] = target: T1, TDP-43 RRM1 (hRRM1) WT; test: crystal structure 2.75 A; Filter binding: 50 mM phosphate, 50 mM imidazole, 10 mM beta-mercaptoethanol, pH 7.5, room temperature, 30 min, 10 pmol 32P-labelled nucleic acid; conditions: protein: recombinant; tags: N-terminal His (pQE30)
TDP-43 hN12 WT [4] = target: T2, TDP-43 hN12 WT; test: filter binding; Filter binding: 50 mM phosphate, 50 mM imidazole, 10 mM beta-mercaptoethanol, pH 7.5, room temperature, 30 min, 10 pmol 32P-labelled nucleic acid; conditions: protein: recombinant; chain copies: 2; label: 5'-32P

T2 sequence (Q13148 1-259): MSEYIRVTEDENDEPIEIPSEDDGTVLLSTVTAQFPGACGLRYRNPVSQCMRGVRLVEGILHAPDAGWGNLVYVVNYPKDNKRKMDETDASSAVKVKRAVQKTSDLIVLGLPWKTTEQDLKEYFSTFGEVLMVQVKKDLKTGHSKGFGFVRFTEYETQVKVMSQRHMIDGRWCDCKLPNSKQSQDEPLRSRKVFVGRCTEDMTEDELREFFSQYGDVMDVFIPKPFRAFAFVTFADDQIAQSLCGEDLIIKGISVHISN
T1 sequence (Q13148 101-191): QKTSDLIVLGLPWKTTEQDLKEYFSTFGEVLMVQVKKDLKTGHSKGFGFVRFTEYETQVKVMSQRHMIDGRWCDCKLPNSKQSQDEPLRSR

TGTGTGTGTGTGTGTGTGTGTGTGTGTGTG (ssDNA) [(TG)15 DNA]
Kd (TDP-43 RRM1 (hRRM1) WT [1]): 20.6 ± 1.8 nM

UGUGUGUGUGUG (ssRNA) [(UG)6 RNA]
binding signal (TDP-43 hN12 WT [2]): 67.9 ± 1.9 % bound

AGAGUGAAAAUG (ssRNA) [PS1]
binding signal (TDP-43 hN12 WT [2]): 23.1 ± 0.8 % bound

CGCGUGCCCCUG (ssRNA) [PS2]
binding signal (TDP-43 hN12 WT [2]): 6.2 ± 0.8 % bound

CACACACACACA (ssRNA) [(CA)6 RNA]
binding signal (TDP-43 hN12 WT [2]): 0.6 ± 1 % bound

GTTGAGCGTT (ssDNA, 2'-methylseleno-adenosine at A5) [10-nt Se-labelled ssDNA]
binding result (TDP-43 RRM1 (hRRM1) WT [3]): binds

UGUGUGUGUGUGUGUGUGUGUGUGUGUGUG (ssRNA) [(UG)15 RNA]
Kd (TDP-43 hN12 WT [4]): 5.3 ± 1.2 nM
